# B1: Flag-eIF2β, wild type [S. cerevisiae] / eIF2γ in yeast whole-cell extracts [yeast (endogenous in yeast whole-cell extracts)] (parent complex)
# chain 1: MSSDLAAELGFDPALKKKKKTKKVIPDDFDAAVNGKENGSGDDLFAGLKKKKKKSKSVSADAEAEKEPTDDIAEALGELSLKKKKKKTKDSSVDAFEKELAKAGLDNVDAESKEGTPSANSSIQQEVGLPYSELLSRFFNILRTNNPELAGDRSGPKFRIPPPVCLRDGKKTIFSNIQDIAEKLHRSPEHLIQYLFAELGTSGSVDGQKRLVIKGKFQSKQMENVLRRYILEYVTCKTCKSINTELKREQSNRLFFMVCKSCGSTRSVSSIKTGFQATVGKRRRM
# chain 2: MSDLQDQEPSIIINGNLEPVGEPDIVEETEVVAQETQETQDADKPKKKVAFTGLEEDGETEEEKRKREFEEGGGLPEQPLNPDFSKLNPLSAEIINRQATINIGTIGHVAHGKSTVVRAISGVQTVRFKDELERNITIKLGYANAKIYKCQEPTCPEPDCYRSFKSDKEISPKCQRPGCPGRYKLVRHVSFVDCPGHDILMSTMLSGAAVMDAALLLIAGNESCPQPQTSEHLAAIEIMKLKHVIILQNKVDLMREESALEHQKSILKFIRGTIADGAPIVPISAQLKYNIDAVNEFIVKTIPVPPRDFMISPRLIVIRSFDVNKPGAEIEDLKGGVAGGSILNGVFKLGDEIEIRPGIVTKDDKGKIQCKPIFSNIVSLFAEQNDLKFAVPGGLIGVGTKVDPTLCRADRLVGQVVGAKGHLPNIYTDIEINYFLLRRLLGVKTDGQKQAKVRKLEPNEVLMVNIGSTATGARVVAVKADMARLQLTSPACTEINEKIALSRRIEKHWRLIGWATIKKGTTLEPIA
# Variants of: B1
# Assay: co-immunoprecipitation with FLAG affinity resin, quantified western; yeast whole-cell extracts; three biological replicates; read off a plot
row,Variant,response
1,"chain 1 F217A, chain 1 Q221A",~0.82 eIF2γ:eIF2β
2,"chain 1 S202A, chain 1 K214A",~0.89 eIF2γ:eIF2β

# Reference: PMC4534855 (2015)
